Data reported in the supplement of paper PMC9170038.

Test system: MS2 coat protein
Experiment: apparent KD of MS2 coat protein; designed switch direction (-1 OFF switch, 1 ON switch): -1; higher = weaker reporter binding
In short: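 The reported apparent KD is a per-design median over clusters, from curve fits of normalised cluster fluorescence. Protein titrations used SNAP-549-labelled MS2 coat protein, doubled from 0.7 or 1.5 nM to 3 µM, in Tris-HCl pH 7.5 buffer with KCl, MgCl2, BSA, DTT, tRNA and Tween-20, with no input, 200 uM small-molecule ligand, or an oligonucleotide input. The RNA switches were transcribed on Illumina chips by stalled E. coli RNA polymerase.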

[1] = input ligand: microRNA oligo, concentration not stated
[2] = Eterna round: R95, input ligand: microRNA oligo, concentration not stated
[3] = Eterna round: R95, input ligand: FMN 200 uM
[4] = Eterna round: R95, input ligand: none

ACAUGAGGAUCACCCAUGUGAAAAGAAUGGCUGACACAGAGAUAGGAUAUAUGUGCAUAUCAAACAUAGAAGGGUCAUGACUGG [Deportation 83 - Jieux - Exclusion NG 3] (Eterna round: R96, puzzle: Exclusion NG 3)
apparent KD of MS2 coat protein [1]: 0.023 µM

GAAUGAGAGCAGGAUAUCUUAUAAAUGUAUGAAAGAGAAGGGCUCACAUGAGGAUCACCCAUGUGGUCCUAGAA [jl-ex6-4.78 jandersonlee mod] (Eterna round: R97, puzzle: Exclusion 6)
apparent KD of MS2 coat protein (input ligand: FMN 200 uM): 0.506 µM | apparent KD of MS2 coat protein (input ligand: none): 0.0369 µM

AGGCAGCAAGGAUAUACAUAAUUCCUACAAGUCAGCAUAGGACAUGAGGAUCACCCAUGUAGAAGGUGCAAAGA [Soesquma] (puzzle: Exclusion 2)
apparent KD of MS2 coat protein [2]: 0.0245 µM

GAUUAACAUGAGGAUCACCCAUGUGAGGAUAUGGACUUGCCCACUUAACCAUUAGAGUCUAGAAGGCGCAUCUC [1986#28] (Eterna round: R97, puzzle: Exclusion 1)
apparent KD of MS2 coat protein (input ligand: FMN 200 uM): 0.0271 µM | apparent KD of MS2 coat protein (input ligand: none): 0.0227 µM

AAGUCGAGCGUGAGGAUAUUGACCGGACGACCCAUCGAGAAGGCACAUGAGGAUCACCCAUGUGAUUCAGCUCA [Brourd's EX4 #52] (Eterna round: R97, puzzle: Brourd's mod of Exclusion 4)
apparent KD of MS2 coat protein (input ligand: FMN 200 uM): 0.0232 µM | apparent KD of MS2 coat protein (input ligand: none): 0.0155 µM

CCGGCUGCUGUGAGGAUAUGCCUGUGGGUGCGUGGGCAGAAGGCACAUGAGGAUCACCCAUGUCCUGCGGUCCC [salish99_bmx4_r4_114] (Eterna round: R97, puzzle: Brourd's mod of Exclusion 4)
apparent KD of MS2 coat protein (input ligand: FMN 200 uM): 0.021 µM | apparent KD of MS2 coat protein (input ligand: none): 0.0266 µM

GAAAAGGUAGGAUAUACGAAAAAAAAGGGUAGAAAAAAAACACAUGAGGAUCACCCAUGUAGAAGGACCAAAAC [salish99_ex2_r3_052] (puzzle: Exclusion 2)
apparent KD of MS2 coat protein [3]: 0.0947 µM | apparent KD of MS2 coat protein [2]: 0.0353 µM | apparent KD of MS2 coat protein [4]: 0.0278 µM

UACAUGAGGAUCACCCAUGUUUUGUCGUGUAUGGUAUUUAUCUAGGAUAUCAAUAUAUUUAUUUAUGAGAAGGAGAAUAUUAAU [JMF's solution 11] (Eterna round: R96, puzzle: Exclusion NG 3)
apparent KD of MS2 coat protein [1]: 0.0285 µM

AGUUGGCGAGGAUAUACAUGAGGAUCACCCAUGUGGUCCUGCGAUGGUGUCGCCCUUUGUAGAAGGCGCGGGUA [salish99_ex3_r4_055] (Eterna round: R97, puzzle: Exclusion 3)
apparent KD of MS2 coat protein (input ligand: FMN 200 uM): 0.0407 µM | apparent KD of MS2 coat protein (input ligand: none): 0.0388 µM

GUCAGCUCGUGAGGAUAUACAUGCGUGCUUCGGCACGUAUGAUAGAUCACAUGAGGAUCACCCAUGUAGAAGGUACGAGCUGAC [ENG2/4-C1] (Eterna round: R96, puzzle: Exclusion NG 2)
apparent KD of MS2 coat protein (input ligand: FMN 200 uM): 0.0134 µM | apparent KD of MS2 coat protein [1]: 0.0122 µM | apparent KD of MS2 coat protein (input ligand: none): 0.0148 µM

AGACAGUCAGGAUAUACAUGAGGAUCACCCAUGUUGAGAUGUGAAAGGGCGGGAGUAGGUAGAAGGGACGAGAG [JR_Exclu3_Sub039] (puzzle: Exclusion 3)
apparent KD of MS2 coat protein [3]: 0.0273 µM | apparent KD of MS2 coat protein [2]: 0.0267 µM | apparent KD of MS2 coat protein [4]: 0.0375 µM

GCAGGUUAAGUCAGGAUAUACCUCUGGAAACAGAGGUAGAAGGGACAUGAGGAUCACCCAUGUUUCUCAUCUGC [Mod of Eli 3 - Jieux - Brourd's mod of Exclusion 4] (Eterna round: R97, puzzle: Brourd's mod of Exclusion 4)
apparent KD of MS2 coat protein (input ligand: FMN 200 uM): 0.0856 µM | apparent KD of MS2 coat protein (input ligand: none): 0.0192 µM

UGAGUGCUGCGAGGAUAUACAUGAGGAUCACCCAUGUAAAAGUGUGAGGCUUUGCCUCACACUAUGUAGAAGGCGCAGUACUCU [JL ENG2 1.04] (Eterna round: R96, puzzle: Exclusion NG 2)
apparent KD of MS2 coat protein (input ligand: FMN 200 uM): 0.0176 µM | apparent KD of MS2 coat protein [1]: 0.0106 µM | apparent KD of MS2 coat protein (input ligand: none): 0.0136 µM

AGUCAGGCGGUAGGAUAUCCAAAUCGAGUGACCCUCUCAUAACAUGAGGAUCACCCAUGUCGGUGGGAGAAGGGCCGUAAGGCA [Mat - Exclusion NG 2 - Mod of JL - D64] (Eterna round: R96, puzzle: Exclusion NG 2)
apparent KD of MS2 coat protein (input ligand: FMN 200 uM): 0.033 µM | apparent KD of MS2 coat protein [1]: 0.0164 µM | apparent KD of MS2 coat protein (input ligand: none): 0.0309 µM

CUUUUGUGAGGAUAUGGUAACGUUUACAUGAGGAUCACCCAUGUUUCAUGGGACUUGAGACUAGAAGGCACUAACG [JR_Ex5_Sub027] (Eterna round: R97, puzzle: Exclusion 5)
apparent KD of MS2 coat protein (input ligand: FMN 200 uM): 0.516 µM | apparent KD of MS2 coat protein (input ligand: none): 0.823 µM

CACCAUCGUGUAAGGAUAUCGAGGCUUAGCGGGUGUGAGAAGGUACAUGAGGAUCACCCAUGUUACGAUUUGCG [Eternabot (L1) Solution 77] (Eterna round: R97, puzzle: Brourd's mod of Exclusion 4)
apparent KD of MS2 coat protein (input ligand: FMN 200 uM): 0.0288 µM | apparent KD of MS2 coat protein (input ligand: none): 0.0256 µM

GAUCCCAUUGUUAGGAUAUAUAGCCUAACGCGAGUGUAGAAGGGACAUGAGGAUCACCCAUGUGUGCAUUAGGG [Eternabot (L2) Solution 96] (Eterna round: R97, puzzle: Brourd's mod of Exclusion 4)
apparent KD of MS2 coat protein (input ligand: FMN 200 uM): 0.0372 µM | apparent KD of MS2 coat protein (input ligand: none): 0.0438 µM

CUAGAGUCAGGAUAUACGAGAUCGAAAGAUCGGCGAUCCCUACAUGAGGAUCACCCAUGUAGAAGGGACUCUAG [Mod 11 - Jieux - Exclusion 2] (Eterna round: R97, puzzle: Exclusion 2)
apparent KD of MS2 coat protein (input ligand: FMN 200 uM): 0.0283 µM | apparent KD of MS2 coat protein (input ligand: none): 0.0138 µM

GAUCAACAUGAGGAUCACCCAUGUGAGGAUAUAGACCUAAGGCGCAAGCUAUGGGACUCUAGAAGGCGCGGAAU [Eternabot (L2) Solution 93] (Eterna round: R97, puzzle: Exclusion 1)
apparent KD of MS2 coat protein (input ligand: FMN 200 uM): 0.04 µM | apparent KD of MS2 coat protein (input ligand: none): 0.0366 µM

AUCAGCUCGUCAGGAUAUACAUGAGGAUCACCCAUGUGAUCAAUAGCAGCUUCGGCUGCAUACAUGUAGAAGGGACGAGCUGAU [ENG2/6-B3] (Eterna round: R96, puzzle: Exclusion NG 2)
apparent KD of MS2 coat protein (input ligand: FMN 200 uM): 0.05 µM | apparent KD of MS2 coat protein [1]: 0.234 µM | apparent KD of MS2 coat protein (input ligand: none): 0.821 µM

CUGUGCUGACGGAGAUCCAACAUGAGGAUCACCCAUGUCUCAAAAGCUUUUUGCUCGUCUUAUCCUCCUCAGUACAC [Mat - Sensor, turn-off var - Eli Mod - D56] (Eterna round: R97, puzzle: Sensor, turn-off variant 1)
apparent KD of MS2 coat protein (input ligand: FMN 200 uM): 0.0177 µM | apparent KD of MS2 coat protein (input ligand: none): 0.0172 µM

GUGUUACAUGAGGAUCACCCAUGUGAGGAUAUGAGUCAGUCACGGUGACGUGGCUGACUCAGAAGGCACAAAGG [Mat - Exclusion 1 - JL Mod - D39] (Eterna round: R97, puzzle: Exclusion 1)
apparent KD of MS2 coat protein (input ligand: FMN 200 uM): 0.291 µM | apparent KD of MS2 coat protein (input ligand: none): 0.0939 µM

AGCUGUGGCCGAGGAUAUCUAUCUCAAAUAACCGAAAUAUAAUCGGACAUGAGGAUCACCCAUGUAGAGAAGGCGGUCUCAGCA [Eli eng2 - 089] (Eterna round: R96, puzzle: Exclusion NG 2)
apparent KD of MS2 coat protein [1]: 0.0114 µM

UUCUUUACACGAGGAUAUCAUACAUGAGGAUCACCCAUGUUGCUUUGUCUGUUUUUAUGUAUUAUUGAGAAGGCGUUUUUCUUU [JR_ExcNG2_Sub076] (Eterna round: R96, puzzle: Exclusion NG 2)
apparent KD of MS2 coat protein (input ligand: FMN 200 uM): 0.0219 µM | apparent KD of MS2 coat protein [1]: 0.0197 µM | apparent KD of MS2 coat protein (input ligand: none): 0.0237 µM

UUUAAUUUUUUUUUUUUACAAGCUUUUUGCUCGUCUUAUACAUGAGGAUCACCCAUGUGGGUGGAGAGUAAAUUAUC [JMF 60] (puzzle: Sensor v3, turn-off variant 2)
apparent KD of MS2 coat protein [3]: 0.0454 µM | apparent KD of MS2 coat protein [2]: 0.0471 µM | apparent KD of MS2 coat protein [4]: 0.056 µM

UGAUUGUGAGGAUAUUCUGAAUAAGGCACGGGCGUCUUAUUGAAGAAGGCACAUGAGGAUCACCCAUGUGGGUU [Eternabot (L2) Solution 90] (Eterna round: R97, puzzle: Exclusion 4)
apparent KD of MS2 coat protein (input ligand: FMN 200 uM): 0.248 µM | apparent KD of MS2 coat protein (input ligand: none): 0.188 µM

UGCACCUCAGGAUAUACUAGGUCCAGUAUGGCGAAAGCCGCACAUGAGGAUCACCCAUGUAGAAGGGAGGUGCA [Eternabot (L1) Solution 61] (Eterna round: R97, puzzle: Exclusion 2)
apparent KD of MS2 coat protein (input ligand: FMN 200 uM): 0.0341 µM | apparent KD of MS2 coat protein (input ligand: none): 0.257 µM

UGUCUUCAUAUCACAUGAGGAUCACCCAUGUUAUUCAUCUCGUAGGAUAUCGAGGUUUAUUAUUUCGAGAAGGACGUAUUGUUU [JR_ExcNG3_Sub076] (Eterna round: R96, puzzle: Exclusion NG 3)
apparent KD of MS2 coat protein (input ligand: FMN 200 uM): 0.199 µM | apparent KD of MS2 coat protein [1]: 0.112 µM | apparent KD of MS2 coat protein (input ligand: none): 0.148 µM

UUUUUCUCAGGAUAUACAUGAGGAUCACCCAUGUAUAUUAAAAAUAAUACAUGGGAAUGUAGAAGGGAGCUCAU [Omei Ex3 Pseudoloop 9] (Eterna round: R97, puzzle: Exclusion 3)
apparent KD of MS2 coat protein (input ligand: FMN 200 uM): 0.141 µM | apparent KD of MS2 coat protein (input ligand: none): 0.161 µM

UUGGAGAUAGGAUAUACGAGGAGAGUUGAGGGAACGCGAUGACAUGAGGAUCACCCAUGUAGAAGGAUCAGGAG [JR_Exclu2_Sub070] (puzzle: Exclusion 2)
apparent KD of MS2 coat protein [3]: 0.0282 µM | apparent KD of MS2 coat protein [2]: 0.036 µM | apparent KD of MS2 coat protein [4]: 0.0403 µM

CUUUCUUGCAAGGAUAUGCAAUUUAUUAUUUAUGCAGAAGGUGCUACAUGAGGAUCACCCAUGUUUCUGGGUUU [JR_E6_Sub045] (puzzle: Exclusion 6)
apparent KD of MS2 coat protein [2]: 0.124 µM

AGAUGGCGAGGAUAUACAUGAGGAUCACCCAUGUGAAGAAGAAUAGUGAGGAAGAAAAGUAGAAGGCGCUGUCA [Mat - Exclusion 3 - Mod of Salish D32] (puzzle: Exclusion 3)
apparent KD of MS2 coat protein [2]: 0.0494 µM

GAUUAUGCGAGCUUUAGGGACAUGAGGAUCACCCAUGUUCGUCUUAUUAGUCUAGAUACGCUGACAUACCUAAAUCU [JMF 96] (puzzle: Sensor v3, turn-off variant 1)
apparent KD of MS2 coat protein [3]: 0.0145 µM | apparent KD of MS2 coat protein [2]: 0.0185 µM | apparent KD of MS2 coat protein [4]: 0.0158 µM

AAUAAGGGAGGAUAUACAUUAAAUCCUAUUUUCUUUUUGUUACAUGAGGAUCACCCAUGUAGAAGGCCCAAUAA [lam1] (Eterna round: R97, puzzle: Exclusion 2)
apparent KD of MS2 coat protein (input ligand: FMN 200 uM): 0.0545 µM | apparent KD of MS2 coat protein (input ligand: none): 0.023 µM
